The numbers were not newly measured in publication PMC2820514, which cites them from elsewhere.

For the data set, the target named is CaMKII monomer (UniProt Q9UQM7).

With CaMKII monomer (from UniProt Q9UQM7), the Kd (commonly the constant that tells how readily two partners part at equilibrium) is 1.3 µM.
